Source: patent WO2004074491A2 (dated 2004)

Target: T1, K88 pilus protein antigen (also known as the F4 fimbriae adhesin) (Escherichia coli (enterotoxigenic))
T1 construct: Used as ELISA coat and as the ligand amine-coupled to the CM5 SPR chip; also called K88 antigen; K88 pili
Experiment: SPR (Biacore), K88 pili coupled to a CM5 chip, purified antibody as analyte

T1 sequence (P14190 22-283): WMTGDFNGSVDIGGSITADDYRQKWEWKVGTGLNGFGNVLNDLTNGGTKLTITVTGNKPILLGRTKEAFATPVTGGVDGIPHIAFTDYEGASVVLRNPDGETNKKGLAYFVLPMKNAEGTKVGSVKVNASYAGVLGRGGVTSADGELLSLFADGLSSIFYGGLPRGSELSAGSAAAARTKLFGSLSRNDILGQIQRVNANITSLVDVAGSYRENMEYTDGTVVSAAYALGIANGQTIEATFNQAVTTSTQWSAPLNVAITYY

Row | Binder | Kd [nM]
1 | plant-produced anti-K88 antibody 36/41 with ER retention signal (corn, pTMR554) (antibody) chain 1: EVQLQQSGPELVKTGASVKISCKASDYSLTDYYMHWVKQSHGESLEWIGYINFYNGATNYNQKFKGKATFTVDTSSSTVYMQFNSLTSEDSAVYYCVREALLRNYAMDYWGQGTSVTVSSAKTTPPSVYPLAPGSAAQTNSMVTLGCLVKGYFPEPVTVTWNSGSLSSGVHTFPAVLQSDLYTLSSSVTVPSSTWPSETVTCNVAHPASSTKVDKKIVPRDCGCKPCICTVPEVSSVFIFPPKPKDVLTITLTPKVTCVVVDISKDDPEVQFSWFVDDVEVHTAQTQPREEQFNSTFRSVSELPIMHQDWLNGKEFKCRVNSAAFPAPIEKTISKTKGRPKAPQVYTIPPPKEQMAKDKVSLTCMITDFFPEDITVEWQWNGQPAENYKNTQPIMDTDGSYFVYSKLNVQKSNWEAGNTFTCSVLHEGLHNHHTEKSLSHSPGKSEKDEL chain 2: ENVLTQSPAIMSASPGEKVTMTCRASSSVSSRYLHWYQQKSGASPKLWIYSTSNLASGVPARFSGSGSGTSYSLTISSVEAEDAATYYCQQYSGYPWTFGGGTKLEIKRADAAPTVSIFPPSSEQLTSGGASVVCFLNNFYPKDINVKWKIDGSERQNGVLNSWTDQDSKDSTYSMSSTLTLTKDEYERHNSYTCEATHKTSTSPIVKSFNRNECSEKDEL | 0.03
2 | anti-K88 monoclonal IgG1 antibody 36/41 purified from hybridoma cells (antibody) chain 1: EVQLQQSGPELVKTGASVKISCKASDYSLTDYYMHWVKQSHGESLEWIGYINFYNGATNYNQKFKGKATFTVDTSSSTVYMQFNSLTSEDSAVYYCVREALLRNYAMDYWGQGTSVTVSSAKTTPPSVYPLAPGSAAQTNSMVTLGCLVKGYFPEPVTVTWNSGSLSSGVHTFPAVLQSDLYTLSSSVTVPSSTWPSETVTCNVAHPASSTKVDKKIVPRDCGCKPCICTVPEVSSVFIFPPKPKDVLTITLTPKVTCVVVDISKDDPEVQFSWFVDDVEVHTAQTQPREEQFNSTFRSVSELPIMHQDWLNGKEFKCRVNSAAFPAPIEKTISKTKGRPKAPQVYTIPPPKEQMAKDKVSLTCMITDFFPEDITVEWQWNGQPAENYKNTQPIMDTDGSYFVYSKLNVQKSNWEAGNTFTCSVLHEGLHNHHTEKSLSHSPGK chain 2: ENVLTQSPAIMSASPGEKVTMTCRASSSVSSRYLHWYQQKSGASPKLWIYSTSNLASGVPARFSGSGSGTSYSLTISSVEAEDAATYYCQQYSGYPWTFGGGTKLEIKRADAAPTVSIFPPSSEQLTSGGASVVCFLNNFYPKDINVKWKIDGSERQNGVLNSWTDQDSKDSTYSMSSTLTLTKDEYERHNSYTCEATHKTSTSPIVKSFNRNEC | 0.03
